Where a chain is given by its changes, count along the chain named.
T1: His-tagged FLT3 extracellular domain (UniProt P36888 27-543, limits assumed)
T1 construct: extracellular domain; also called c-Kit family member; not shown: His tag
T1 sequence (looked up): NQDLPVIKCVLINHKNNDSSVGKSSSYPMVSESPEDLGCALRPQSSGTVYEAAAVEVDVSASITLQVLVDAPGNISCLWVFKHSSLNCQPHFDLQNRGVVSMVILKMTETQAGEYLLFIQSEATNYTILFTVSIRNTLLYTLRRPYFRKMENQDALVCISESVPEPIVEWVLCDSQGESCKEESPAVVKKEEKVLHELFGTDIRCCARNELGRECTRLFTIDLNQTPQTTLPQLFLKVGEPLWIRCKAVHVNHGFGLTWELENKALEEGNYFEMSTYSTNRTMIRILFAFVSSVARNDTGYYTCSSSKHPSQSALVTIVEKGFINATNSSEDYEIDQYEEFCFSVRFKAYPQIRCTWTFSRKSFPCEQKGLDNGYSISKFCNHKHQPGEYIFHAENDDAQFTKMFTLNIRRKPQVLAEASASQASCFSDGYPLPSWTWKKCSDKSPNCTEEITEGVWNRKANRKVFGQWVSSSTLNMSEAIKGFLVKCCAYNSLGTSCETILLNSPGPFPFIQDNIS

B1: Murine anti-c-Kit SR1 (mSR1) (antibody, mouse IgG2a, kappa)
heavy: QVQLQQPGAELVKPGASVKMSCKASGYTFTSYNMHWVKQTPGQGLEWIGVIYSGNGDTSYNQKFKGKATLTADKSSSTAYMQINSLTSEDSAVYYCARERDTRFGNWGQGTLVTVSAAKTTAPSVYPLAPVCGDTTGSSVTLGCLVKGYFPEPVTLTWNSGSLSSGVHTFPAVLQSDLYTLSSSVTVTSSTWPSQSITCNVAHPASSTKVDKKIEPRGPTIKPCPPCKCPAPNLLGGPSVFIFPPKIKDVLMISLSPIVTCVVVDVSEDDPDVQISWFVNNVEVHTAQTQTHREDYNSTLRVVSALPIQHQDWMSGKEFKCKVNNKDLPAPIERTISKPKGSVRAPQVYVLPPPEEEMTKKQVTLTCMVTDFMPEDIYVEWTNNGKTELNYKNTEPVLDSDGSYFMYSKLRVEKKNWVERNSYSCSVVHEGLHNHHTTKSFSRTPGK
light: NIVLTQSPASLAVSLGLRATISCRASESVDIYGNSFMHWYQQKPGQPPKLLIYLASNLESGVPARFSGSGSRTDFTLTIDPVEADDAATYYCQQNNEDPYTFGGGTKLEIKRADAAPTVSIFPPSSEQLTSGGASVVCFLNNFYPKDINVKWKIDGSERQNGVLNSWTDQDSKDSTYSMSSTLTLTKDEYERHNSYTCEATHKTSTSPIVKSFNRNEC
B2: hSR1-1 (antibody, human IgG1, kappa, V domains shown)
VH: QVQLVQSGAEVKKPGASVKVSCKASGYTFTSYNMHWVRQAPGQGLEWMGVIYSGNGDTSYAQKFQGRVTMTADTSTSTAYMELSSLRSEDTAVYYCARERDTRFGNWGQGTLVTVSS
VL: DIQLTQSPSSLSASVGDRATITCRASESVDIYGNSFMHWYQQKPGKAPKLLIYLASNLESGVPSRFSGSGSGTDFTLTISSVQPEDFATYYCQQNNEDPYTFGQGTKLEIKR
notes: Humanized anti-c-Kit antibody; also called humanized SR1-1; hSR1-H2 / hSR1-L2
B3: hSR1-2 (antibody, human IgG1, kappa, V domains shown)
VH: B2 VH with V20M, M48I, V68A, M70L
VL: B2 VL
notes: also called humanized SR1-2; hSR1-H3 / hSR1-L2
B4: hSR1-3 (antibody, human IgG1, kappa, V domains shown)
VH: B2 VH with T74K
VL: B2 VL
notes: also called humanized SR1-3; hSR1-H2b / hSR1-L2
B5: hSR1-4 (antibody, human IgG1, kappa, V domains shown)
VH: B2 VH with V20M, M48I, V68A, M70L, T74K
VL: B2 VL
notes: also called humanized SR1-4; hSR1-H3b / hSR1-L2
B6: hSR1-5 (antibody, human IgG1, kappa, V domains shown)
VH: B2 VH
VL: B2 VL with G72R
notes: also called humanized SR1-5; hSR1-H2 / hSR1-L2r
B7: hSR1-6 (antibody, human IgG1, kappa, V domains shown)
VH: B2 VH with V20M, M48I, V68A, M70L
VL: B2 VL with G72R
notes: also called humanized SR1-6; hSR1-H3 / hSR1-L2r
B8: anti-siglec/anti-c-Kit bispecific JML-1/hSR1-1 (bispecific antibody, V domains shown)
VH 1: KVQLLESGGGLVQPGRSLRLSCAASGFTFDDYGMHWVRQAPGKGLEWVSGISWNSGSIGYADSVKGRFTISRDNSKNTLYLQMNSLRAEDTAVYYCARGGQTIDIWGQGTMVTVSS
VL 1: not shown
VH 2: B2 VH
VL 2: DIQLTQSPSSLSASVGDRATITCRASESVDIYGNSFMHWYQQKPGKAPKLLIYLASNLESGVPSRFSGSGSGTDFTLTISSVQPEDFATYYCQQNNEDPYTFGQGTKLEIK
B9: anti-siglec/anti-c-Kit bispecific hRND-3/hSR1-1 (bispecific antibody, V domains shown)
VH 1: QVQLVQSGAEVKKPGASVKLSCKASGYAFTSYWMHWVRQAPGQRLEWIGEIYPTNGGTTYAQKFQGRATLTVDKSTSTAYMELSRLRSDDTAVYYCTIEDFYAMDYWGQGTTVTVSS
VL 1: DIVMTQTPLSLSVTPGQPASISCKSSQSLLDSDGKTSLNWLLQKPGQSPQRLIYLVSKLDSGVPDRFSGSGSGTDFTLKISRVEAEDVGVYYCWQGTHFPYTFGQGTKLEIK
VH 2: B2 VH
VL 2: B8 VL 2
B10: Murine anti-siglec-6 RND (mRND) (antibody, mouse IgG2a, kappa, V domains shown)
VH: QVQLQQPGAELVKPGASVKLSCKASGYAFTSYWMHWVKLRPGQGFEWIGEIYPTNGGTTYNEKFKRKATLTVDKSSSTAYMQLSSLTSEDSAVYYCTIEDFYAMDYWGQGTSVTVSS
VL: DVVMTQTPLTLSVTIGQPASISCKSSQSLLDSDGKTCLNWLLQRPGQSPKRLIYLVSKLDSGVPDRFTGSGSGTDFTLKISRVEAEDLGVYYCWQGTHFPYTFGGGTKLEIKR
notes: also called murine RND; copies: 2 + 2

The binders below were run against T2, c-Kit expressed on the cell surface of M-07e cells (human, UniProt P10721 26-976) (assay: cell-based or functional assay).
T2 sequence (P10721 26-976): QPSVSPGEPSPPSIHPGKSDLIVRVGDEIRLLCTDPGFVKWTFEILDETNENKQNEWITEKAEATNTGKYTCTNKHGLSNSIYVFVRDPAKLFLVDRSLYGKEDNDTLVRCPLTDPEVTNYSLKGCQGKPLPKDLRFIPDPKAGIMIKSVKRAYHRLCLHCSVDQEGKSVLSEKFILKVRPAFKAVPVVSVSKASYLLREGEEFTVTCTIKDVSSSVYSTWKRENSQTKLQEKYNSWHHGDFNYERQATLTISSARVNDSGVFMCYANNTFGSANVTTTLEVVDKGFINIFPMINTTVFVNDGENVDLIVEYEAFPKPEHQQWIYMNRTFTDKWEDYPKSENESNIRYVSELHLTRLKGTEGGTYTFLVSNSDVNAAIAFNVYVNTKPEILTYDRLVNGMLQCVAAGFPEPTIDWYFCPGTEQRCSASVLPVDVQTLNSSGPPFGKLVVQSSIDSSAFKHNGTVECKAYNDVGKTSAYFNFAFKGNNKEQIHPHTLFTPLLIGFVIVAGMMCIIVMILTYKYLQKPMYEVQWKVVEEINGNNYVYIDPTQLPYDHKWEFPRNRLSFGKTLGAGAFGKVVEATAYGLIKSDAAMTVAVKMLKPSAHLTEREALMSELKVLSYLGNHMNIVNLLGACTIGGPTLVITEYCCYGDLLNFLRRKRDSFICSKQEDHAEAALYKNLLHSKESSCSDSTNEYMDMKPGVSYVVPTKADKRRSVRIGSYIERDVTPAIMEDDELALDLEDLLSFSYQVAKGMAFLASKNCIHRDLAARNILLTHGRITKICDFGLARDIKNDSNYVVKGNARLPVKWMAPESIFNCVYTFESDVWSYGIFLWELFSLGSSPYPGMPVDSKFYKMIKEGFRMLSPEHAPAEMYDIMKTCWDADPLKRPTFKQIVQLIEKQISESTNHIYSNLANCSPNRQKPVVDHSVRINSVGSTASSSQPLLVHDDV

Binder | IC50, inhibition of SCF-dependent proliferation of M-07e cells [nM]
B1 | 0.283
B2 | 0.141
B3 | 0.142
B4 | 0.113
B5 | 0.139
B6 | 0.141
B7 | 0.152

Biological target: T2, c-Kit expressed on the cell surface of …
Assay: cell-based or functional assay
Remark: another data set of the same source

Binder | IC50 (read off the curve) [nM]
B8 | ~0.3
B9 | ~0.2

These binders were tested against T2, c-Kit expressed on the cell surface of … (assay: flow cytometry on M-07e cells).
Method: (§1) Target binding of c-Kit antibodies to c-Kit-expressing cells was assessed by flow cytometry. Cultured M-07e cells were resuspended in FACS Blocking Buffer (PBS+10% normal human serum) for 30 minutes. Following washing, cells were incubated with c-Kit antibodies in FACS Buffer (PBS+0.5% bovine serum albumin+0.09% sodium azide) and incubated at 4° C. for 30 minutes, washed and incubated with PE-labeled anti-human secondary antibody. Cells were incubated at 4° C. for 30 minutes in the dark. Following washing, cytofluorimetric analysis was conducted using a BD FACS Symphony A3 (BD Biosciences). Cells were sorted by scatter properties and separated for single cell analysis using side scatter width vs side scatter area. Antibody binding to cells was quantitated by measuring fluorescent emissions of excitation wavelength of 561 nm using a 586/15 nm filter. All tested c-Kit antibodies were capable of binding to cells expressing c-Kit.

Binder | Measuring Fluorescent Intensity (MFI) | Percent Positive for c-Kit on M-07e cells [%]
B2 | 5020 | 99.5
B3 | 5200 | 99.7
B4 | 5190 | 99.8
B5 | 4960 | 99.8
B6 | 4030 | 99.5
B7 | 3590 | 99.4

The binders below were run against T3, Human siglec-6 expressed on the cell surface (HMC1.2 cells; HEK293 cells expressing human siglec-6) (human, UniProt O43699 27-453) (assay: flow cytometry on HMC1.2 cells).
T3 construct: whole, on cells; also called cell surface expressed siglec-6; CD327
Method: as §1, with “siglec-6” for “c-Kit”, “siglec-6-expressing” for “c-Kit-expressing”, “HMC1.2” for “M-07e”, “anti-human or anti-mouse” for “anti-human”, “antibodies.” for “antibody.”, “siglec-6.” for “c-Kit.”

T3 sequence (O43699 27-453): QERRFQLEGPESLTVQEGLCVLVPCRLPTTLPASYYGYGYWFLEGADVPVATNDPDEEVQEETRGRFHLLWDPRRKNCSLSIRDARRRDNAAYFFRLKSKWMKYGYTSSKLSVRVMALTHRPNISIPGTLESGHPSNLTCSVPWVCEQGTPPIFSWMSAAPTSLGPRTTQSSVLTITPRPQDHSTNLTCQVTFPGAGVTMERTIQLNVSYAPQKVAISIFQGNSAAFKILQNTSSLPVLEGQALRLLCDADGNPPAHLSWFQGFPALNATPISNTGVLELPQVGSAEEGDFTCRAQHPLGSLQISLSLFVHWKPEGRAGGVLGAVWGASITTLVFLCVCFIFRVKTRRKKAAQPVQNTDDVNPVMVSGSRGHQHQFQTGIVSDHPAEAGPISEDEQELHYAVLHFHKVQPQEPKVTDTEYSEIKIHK

Binder | MFI [MFI] | Percent Positive for Siglec-6 on HMC1.2 cells [%]
B10 | 1970 | 99.9

These binders were tested against Human c-Kit (BLI analyte) (human, UniProt P10721 26-520, limits assumed) (assay: BLI (Octet), antibody on capture sensor).
Method: (§2) Further, binding affinities of c-Kit antibodies to human c-Kit and cynomolgus c-Kit were measured by biolayer interferometry ([…]) using an Octect instrument. Briefly, capture sensors were loaded with test antibodies with 3-fold dilutions. The association and dissociation rates to were determined and used to calculate the equilibrium dissociation constant KD (Table 3).

Human c-Kit (BLI analyte), sequence (P10721 26-520 limits assumed): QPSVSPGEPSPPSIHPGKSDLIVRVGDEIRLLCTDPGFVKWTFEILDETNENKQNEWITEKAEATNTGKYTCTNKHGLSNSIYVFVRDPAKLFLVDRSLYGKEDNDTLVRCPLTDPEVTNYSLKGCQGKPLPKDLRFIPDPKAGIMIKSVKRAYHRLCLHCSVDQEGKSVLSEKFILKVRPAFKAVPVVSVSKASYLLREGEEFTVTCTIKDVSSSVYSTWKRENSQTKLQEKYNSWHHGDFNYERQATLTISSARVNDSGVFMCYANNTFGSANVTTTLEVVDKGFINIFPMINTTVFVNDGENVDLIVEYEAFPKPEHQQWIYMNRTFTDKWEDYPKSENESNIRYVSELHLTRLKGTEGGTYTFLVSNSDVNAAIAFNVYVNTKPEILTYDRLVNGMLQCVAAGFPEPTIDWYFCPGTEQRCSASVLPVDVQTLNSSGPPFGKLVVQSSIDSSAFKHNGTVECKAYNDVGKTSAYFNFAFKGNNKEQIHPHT

Binder | Kd [nM]
B2 | 0.199
B3 | 0.245
B4 | 0.256
B5 | 0.386
B6 | 0.256
B7 | 0.247

These binders were tested against T4, Cynomolgus c-Kit (BLI analyte) (cynomolgus) (assay: BLI (Octet), antibody on capture sensor).
T4 construct: also called Cynomoguls c-Kit
Method: as §2

Binder | Kd [nM]
B2 | 0.232
B3 | 0.389
B4 | 0.332
B5 | 0.563
B6 | 0.405
B7 | 0.296

Each binder was assayed against T5, His-tagged PDGFRa extracellular domain (UniProt P16234 24-528, limits assumed) (assay: ELISA, His-tagged extracellular domain coated).
T5 construct: extracellular domain; also called c-Kit family member; not shown: His tag
Method: (§3) His-tagged human c-Kit, His-tagged cynomolgus c-Kit, and His-tagged PDGFRa, PDGFRb, CSF1R, and FLT3 extracellular domains were immobilized on 96 well ELISA plates. Plates were washed with PBST (Phosphate buffered saline+0.05% Tween 20) and blocked for 1 hour with 1% BSA in PBS. Following washing with PBST, mAbs were added to the coated plate and incubated for 2 hours at room temperature. Plates were washed and incubated with HRP-conjugated goat anti-human IgG secondary antibody for 1 hour at room temperature. Following washing, antibody binding was detected colorimetrically by adding 3,3′,5,5′-tetramethylbenzidine (TMB) and incubated at room temperature for 10-20 minutes before adding 2.5N sulfuric acid stopping solution. Absorbance at 450 nm was measured on a plate reader (PerkinElmer). Data was analyzed using GraphPad Prism.

T5 sequence (P16234 24-528 limits assumed): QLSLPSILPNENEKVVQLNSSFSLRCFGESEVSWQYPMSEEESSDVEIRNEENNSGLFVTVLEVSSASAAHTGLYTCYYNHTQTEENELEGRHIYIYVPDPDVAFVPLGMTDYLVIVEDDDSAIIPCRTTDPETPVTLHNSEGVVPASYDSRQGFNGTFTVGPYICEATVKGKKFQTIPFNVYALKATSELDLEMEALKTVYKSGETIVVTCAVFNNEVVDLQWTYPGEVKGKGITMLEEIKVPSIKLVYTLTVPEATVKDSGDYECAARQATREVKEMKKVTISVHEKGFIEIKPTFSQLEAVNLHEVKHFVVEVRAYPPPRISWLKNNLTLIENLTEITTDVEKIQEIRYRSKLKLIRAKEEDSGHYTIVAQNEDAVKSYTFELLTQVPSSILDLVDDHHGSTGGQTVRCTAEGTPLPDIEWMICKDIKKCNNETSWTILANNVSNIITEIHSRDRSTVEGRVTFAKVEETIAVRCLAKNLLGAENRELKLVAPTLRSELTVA

Binder | binding result
B2 | no binding
B3 | no binding
B4 | no binding
B5 | no binding
B6 | no binding
B7 | no binding

What follows are binders tested against T6, His-tagged PDGFRb extracellular domain (UniProt P09619 33-532, limits assumed) (assay: ELISA, His-tagged extracellular domain coated).
T6 construct: extracellular domain; also called c-Kit family member; not shown: His tag
Method: as §3

T6 sequence (P09619 33-532 limits assumed): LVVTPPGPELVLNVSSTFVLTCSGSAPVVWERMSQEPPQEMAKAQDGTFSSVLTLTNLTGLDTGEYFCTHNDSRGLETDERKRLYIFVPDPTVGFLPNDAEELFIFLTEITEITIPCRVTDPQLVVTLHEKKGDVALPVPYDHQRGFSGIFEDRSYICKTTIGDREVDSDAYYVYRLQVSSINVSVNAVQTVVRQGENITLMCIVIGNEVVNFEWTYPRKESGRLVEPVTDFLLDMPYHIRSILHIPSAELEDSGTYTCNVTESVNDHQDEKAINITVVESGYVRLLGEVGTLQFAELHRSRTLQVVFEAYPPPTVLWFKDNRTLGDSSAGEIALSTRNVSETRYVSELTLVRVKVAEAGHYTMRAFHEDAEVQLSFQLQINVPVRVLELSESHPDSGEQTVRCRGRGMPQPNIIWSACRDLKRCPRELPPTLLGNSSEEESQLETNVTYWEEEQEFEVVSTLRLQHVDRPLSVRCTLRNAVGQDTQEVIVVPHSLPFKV

Binder | binding result
B2 | no binding
B3 | no binding
B4 | no binding
B5 | no binding
B6 | no binding
B7 | no binding

What follows are binders tested against T7, His-tagged CSF1R extracellular domain (UniProt P07333 20-517, limits assumed) (assay: ELISA, His-tagged extracellular domain coated).
T7 construct: extracellular domain; also called c-Kit family member; not shown: His tag
Method: as §3

T7 sequence (P07333 20-517 limits assumed): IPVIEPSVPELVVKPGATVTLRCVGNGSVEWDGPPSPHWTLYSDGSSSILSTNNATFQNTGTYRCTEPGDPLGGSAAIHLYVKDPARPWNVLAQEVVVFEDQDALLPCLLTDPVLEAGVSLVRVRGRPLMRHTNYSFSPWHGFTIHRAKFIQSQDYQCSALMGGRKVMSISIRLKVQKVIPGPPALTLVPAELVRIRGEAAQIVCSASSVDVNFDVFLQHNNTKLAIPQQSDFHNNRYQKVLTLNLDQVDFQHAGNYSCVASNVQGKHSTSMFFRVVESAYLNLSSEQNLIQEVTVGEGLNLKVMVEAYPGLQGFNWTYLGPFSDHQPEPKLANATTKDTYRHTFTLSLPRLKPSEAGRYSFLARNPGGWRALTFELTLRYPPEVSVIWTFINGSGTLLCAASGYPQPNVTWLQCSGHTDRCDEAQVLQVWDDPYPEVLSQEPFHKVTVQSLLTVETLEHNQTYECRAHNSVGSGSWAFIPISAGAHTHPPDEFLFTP

Binder | binding result
B2 | no binding
B3 | no binding
B4 | no binding
B5 | no binding
B6 | no binding
B7 | no binding

What follows are binders tested against T1, His-tagged FLT3 extracellular domain (assay: ELISA, His-tagged extracellular domain coated).
Method: as §3

Binder | binding result
B2 | no binding
B3 | no binding
B4 | no binding
B5 | no binding
B6 | no binding
B7 | no binding

Source: patent US20260070975A1 (SANTA ANA BIO, published 2026)
